Measurements: patent US6887705B1, “Tyrosine phosphorylated cleavage furrow-associated proteins (PSTPIPs)” (Genentech, Inc., priority 1997, dated 2005)
Where two headings read alike, the source gives them in different places.

T1: full-length PSTPIP tagged with the FLAG epitope at the C-terminus (murine, UniProt P97814 1-415)
T1 construct: In vitro transcribed/translated in rabbit reticulocyte lysate, or expressed in COS cells
T1 sequence: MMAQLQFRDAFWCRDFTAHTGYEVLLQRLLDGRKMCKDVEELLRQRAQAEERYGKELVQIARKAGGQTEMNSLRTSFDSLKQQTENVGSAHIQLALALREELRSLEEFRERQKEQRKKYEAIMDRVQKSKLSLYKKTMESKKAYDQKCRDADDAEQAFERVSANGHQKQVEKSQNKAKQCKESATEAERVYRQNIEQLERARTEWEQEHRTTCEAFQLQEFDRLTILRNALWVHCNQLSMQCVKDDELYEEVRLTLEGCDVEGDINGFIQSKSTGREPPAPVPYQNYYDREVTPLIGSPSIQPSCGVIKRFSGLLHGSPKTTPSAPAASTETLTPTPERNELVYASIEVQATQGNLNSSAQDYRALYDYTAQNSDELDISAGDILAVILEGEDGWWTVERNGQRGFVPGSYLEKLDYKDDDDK

T2: PSTPIP (Mus musculus, UniProt P97814)
T2 construct: containing the full-length cDNA for PSTPIP (amino acids 2-415) was subcloned into pGEX4T-2; made in house; host or cells: E. coli DH5-alpha
T2 sequence (P97814 2-415): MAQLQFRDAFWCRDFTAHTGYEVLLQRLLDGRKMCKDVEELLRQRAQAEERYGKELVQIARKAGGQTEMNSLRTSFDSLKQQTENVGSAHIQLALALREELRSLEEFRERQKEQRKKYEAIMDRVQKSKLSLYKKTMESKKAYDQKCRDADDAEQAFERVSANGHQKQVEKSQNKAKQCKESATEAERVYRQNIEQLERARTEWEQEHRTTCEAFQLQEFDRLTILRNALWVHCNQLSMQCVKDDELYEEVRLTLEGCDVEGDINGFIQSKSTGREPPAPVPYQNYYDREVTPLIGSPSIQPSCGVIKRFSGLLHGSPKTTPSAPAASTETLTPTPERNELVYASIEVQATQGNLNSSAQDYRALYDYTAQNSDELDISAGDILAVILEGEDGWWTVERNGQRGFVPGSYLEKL


Columns and labels:
[1] = target: T1, full-length PSTPIP tagged with the FLAG …; assay: peptide competition of the GST-PST-rich+CTH PTP HSCF pulldown of in vitro translated PSTPIP
Procedure: This was reacted for 1 hour at 4° C. and then the resin washed 6 times in HEPES/Triton binding buffer before SDS gel electrophoresis. The peptides were synthesized on an automated Milligen 9050 Peptide Synthesizer using standard solid phase chemistry with FMOC protected amino acids on a p-alkoxybenzyl alcohol resin. Dried peptides were re-suspended in the HEPES/Triton Binding buffer at a concentration of 10 mg/ml. Peptide inhibition was performed by adding the peptide first to the in vitro translation product and then the GST-fusion followed by the GSH-Sepharose. The binding/washing steps were as previously described. The peptides synthesized and the PTPs they were derived from were:
The region of PTP HSCF which interacts with PSTPIP was identified by producing deletion mutants of the enzyme missing either the 20 amino acid C-terminal domain which is highly conserved in all of the PEST PTPs (Yang et al. (1993) supra, Matthews et al., (1992) supra, Cheng et al., (1996) supra, Huang et al., (1996) supra, Aoki et al., (1996) Dosil et al., (1996) supra and Kim et al., (1996) supra) or both this domain as well as the longer proline, serine and threonine rich region C-terminal to the catalytic domain (FIG. 4A). FIG. 4B-C reveal that deletion of the C-terminal 20 amino acid homology domain of PTP HSCF completely abolished the interaction between PTP HSCF and PSTPIP. Because this region is conserved in all PEST PTPs, it is possible that both PTP PEST (Yang et al., (1993) supra) as well as PTP PEP (Matthews et al., (1992) supra) also interact with PSTPIP. In order to examine this possibility, as well as to examine if the 20 amino acid C-terminal region is sufficient for this interaction, 20 residue long peptides derived from the homologous C-terminal domain of three PEST PTPs were used to compete with the interaction between PTP HSCF and PSTPIP (FIG. 4D). In this form of the assay, a GST fusion derived from the PST-rich and C-terminal homology regions of the phosphatase was used to precipitate in vitro translated PSTPIP in the presence of varying amounts of peptides. […]

[2] = target: T2, PSTPIP; assay: In vitro GST pull-down binding of PTP HSCF forms to GST PSTPIP; set-up: species or system murine; settings: 1 or 10 μg/ml GST PST PIP
Procedure: The binding was carried out according to the method of Wong and Johnson (Wong et al., J. Biol. Chem. 271(35):20981-20984 (1996)). Briefly, 1 μg of plasmid with either the PSTPIP protein or PTP HSCF under the control of the Sp6 promoter was in vitro transcribed/translated using the Promega™ TnT Rabbit Reticulocyte™ system. Samples were diluted in 50 mM HEPES, pH 7.2, 1% triton X 100, 10% glycerol, 100 mM NaCl, 5 mM EDTA and 2 μg/ml each of leupeptin, pepstatin, aprotinin, and PMSF. […] This was reacted for 1 hour at 4° C. and then the resin washed 6 times in HEPES/Triton binding buffer before SDS gel electrophoresis. The peptides were synthesized on an automated Milligen 9050 Peptide Synthesizer using standard solid phase chemistry with FMOC protected amino acids on a p-alkoxybenzyl alcohol resin. Dried peptides were re-suspended in the HEPES/Triton Binding buffer at a concentration of 10 mg/ml. Peptide inhibition was performed by adding the peptide first to the in vitro translation product and then the GST-fusion followed by the GSH-Sepharose. […]
In vitro binding analyses between various PTP HSCF and PST PIP constructs were performed as previously described (Spencer et al, (1997), supra). […] Samples were than reacted with GST fusion proteins at various concentrations, and the bound proteins were centrifuged using glutathione-sepharose beads and analyzed on SDS polyacrylamide gels. […]

[3] = system: PST PIP - PTP HSCF association; assay: Coprecipitation of PST PIP and PTP HSCF from co-transfected COS cells; assay type: cell-based
Procedure: COS-7 cells were transfected by electroporation. Briefly, 1.5×10^6 COS-7 cells were mixed with 24 μg total DNA in PBS and electroporated at 960 μF, […] (Bio-Rad™ Gene Pulsar™). Following electroporation, cells were seeded in 10 cm dishes and incubated for 3 days. 10-cm dishes of transfected COS cells were washed twice with ice-cold PBS, and lysed in 1 ml of M-RIPA (50 mM Tris 7.4, 1% NP40, 0.25% DOC, 150 mM NaCl, 1 mM sodium ortho-vanadate, 1 mM NaF plus Complete™ Protease Inhibitors (Boehringer Mannheim)). Lysates were incubated for 15 minutes with 100 μl UltraLink Immobilized Protein A/G™ (Pierce) at 4° C., followed by centrifugation for 5 minutes. Supernatants were collected and stored at −70° C. or directly immunoprecipitated. 5 μg of M2 or 12CA5 was added to 500 μl of lysate and incubated overnight at 4° C. Ultralink Protein A/G™ was added and incubation continued for 2 hours at 4° C. The immune complexes were washed 3 times with M-RIPA. The proteins were subjected to SDS-PAGE and transferred to nitrocellulose in 1X Transfer Buffer™ (Novex). Immunoblots were blocked overnight at 4° C. in 3% milk/PBS. To detect Flag-tagged PIP, blots were incubated with 10 μg/ml Bio-M2 (Biotinylated anti-FLAG monoclonal Ab, KODAK) followed by incubation in 10 μg/ml streptavidin-HRP (UBI). To detect HA-tagged PTPhscf, blots were incubated in anti-(HA)-peroxidase (Boehringer Mannheim) as per manufacturer's instructions. To detect phosphotyrosine, blots were incubated in HRP-conjugated 4G10 (anti-phosphotyrosine monoclonal, UBI) as per manufacture's instructions.
In vitro binding analyses between various PTP HSCF and PST PIP constructs were performed as previously described (Spencer et al, (1997), supra). Briefly, plasmids were transcribed and translated in vitro using the TnT Rabbit Reticulocyte Lysate System (Promega). Samples were diluted in 50 mM HEPES, pH 7.2, 1% triton X-100, 10% glycerol, 100 mM NaCl, and 2 μg/ml each of leupeptin, pepstatin, aprotinin and PMSF (lysis buffer). Samples were than reacted with GST fusion proteins at various concentrations, and the bound proteins were centrifuged using glutathione-sepharose beads and analyzed on SDS polyacrylamide gels. C-terminally-derived peptide inhibition studies were performed by incubating the GST fusion protein binding reactions in the presence of 10 μg/ml of the indicated peptides. Peptides were produced by FMOC-protected amino acids as previously described (Spencer et al, (1997), supra). In vivo interactions between various forms of PTP HSCF and PST PIP were also performed as previously described (Spencer et al, (1997), supra). Briefly, COS cells were transfected with various constructs, and after 48 hours, lysates were prepared and immunoprecipitated with antibodies to either the FLAG epitope contained at the C-terminus of PST PIP or an HA epitope contained at the N-terminus of PTP HSCF. The resultant blots were probed with anti-FLAG to detect PST PIP, anti-HA to detect PTP HSCF or anti-phosphotyrosine to detect levels of this modified amino acid in each protein.

Molecule	lowest peptide concentration that effectively blocks the interaction [1]	binding of in vitro translated PTP HSCF forms to GST PSTPIP [2]	in vivo association (coprecipitation) of PST PIP and PTP HSCF [3]	in vivo association (coprecipitation) of PST PIP and PTP HSCF ([3]; listed as PTP HSCF444+450)
GFNLRIGRPKGPRDPPAEWT (Synthetic, FMOC chemistry; also called proline rich peptide derived from the C-terminal homology region of PTP HSCF) [PXXP-HSCF peptide (PTP HSCF 432-451)]	~800 nM			
GFGNRFSKPKGPRNPPSAW (Synthetic, FMOC chemistry; also called proline rich peptide derived from the C-terminal homology region of PTP PEP) [PXXP-PEP peptide (PTP PEP 782-800)]	~800 nM			
R444+W450: PTP HSCF double mutant with R444 and W450 mutated to alanine (protein, left off: small tags and cut ends, PTP HSCF double mutant with R444 and W450 mutated to alanine) MSRHTDLVRSFLEQLEARDYREGAILAREFSDIKARSVAWKSEGVCSTKAGSRLGNTNKNRYKDVVAYDETRVILSLLQEEGHGDYINANFIRGIDGSQAYIATQGPLPHTLLDFWRLVWEFGVKVILMACQETENGRRKCERYWAREQEPLKAGPFCITLTKETTLNADITLRTLQVTFQKEFRSVHQLQYMSWPDHGVPSSSDHILTMVEEARCLQGLGPGPLCVHCSAGCGRTGVLCAVDYVRQLLLTQTIPPNFSLFQVVLEMRKQRPAAVQTEEQYRFLYHTVAQLFSRTLQDTSPHYQNLKENCAPICKEAFSLRTSSALPATSRPPGGVLRSISVPAPPTLPMADTYAVVQKRGASAGTGPGPRAPTSTDTPIYSQVAPRAQRPVAHTEDAQGTTALRRVPADQNSSGPDAYEEVTDGAQTGGLGFNLRIGRPKGPADPPAEATRV		stronger inhibitory effect on binding to PST PIP	as poor at interacting in vivo with PST PIP as the mutant which was missing the entire C-terminal proline rich domain	complete loss of coprecipitation
GFGNRCGKPKGPRDPPSEWT (Synthetic, FMOC chemistry; also called proline rich peptide derived from the C-terminal homology region of PTP PEST) [PXXP-PEST peptide (PTP PEST 761-780)]	~800 nM			
deletion of the C-terminal 20 amino acid homology domain of PTP HSCF: PTP HSCF deletion mutant missing the C-terminal homology domain (protein, UniProt Q99952 1-440, looked up, fragment) MSRSLDSARSFLERLEARGGREGAVLAGEFSDIQACSAAWKADGVCSTVAGSRPENVRKNRYKDVLPYDQTRVILSLLQEEGHSDYINGNFIRGVDGSLAYIATQGPLPHTLLDFWRLVWEFGVKVILMACREIENGRKRCERYWAQEQEPLQTGLFCITLIKEKWLNEDIMLRTLKVTFQKESRSVYQLQYMSWPDRGVPSSPDHMLAMVEEARRLQGSGPEPLCVHCSAGCGRTGVLCTVDYVRQLLLTQMIPPDFSLFDVVLKMRKQRPAAVQTEEQYRFLYHTVAQMFCSTLQNASPHYQNIKENCAPLYDDALFLRTPQALLAIPRPPGGVLRSISVPGSPGHAMADTYAVVQKRGAPAGAGSGTQTGTGTGTGARSAEEAPLYSKVTPRAQRPGAHAEDARGTLPGRVPADQSPAGSGAYEDVAGGAQTGGLGF		completely abolished the interaction		
